Experimental data from paper PMC4057782, “tRNA synthetase counteracts c-Myc to develop functional vasculature” (eLife, 2014).

Target: T1, GST-SerRS fusion protein (full-length human SerRS) (human, UniProt P49591 1-514)
T1 construct: also called GST-tagged SerRS
Experiment: pull-down; GST or GST-SerRS fusion proteins (full-length or domain fragments) incubated with recombinant His-tagged SIRT2 for two hours and pulled down on Glutathione-Sepharose 4B; 20 mM HEPES pH 7.9, 150 mM NaCl, 0.5 mM EDTA, 10% glycerol, 0.1% Triton X-100, 1 mM DTT; SIRT2 detected with anti-His6
Settings: both partners purified

T1 sequence (P49591 whole entry, the tested form may be a part): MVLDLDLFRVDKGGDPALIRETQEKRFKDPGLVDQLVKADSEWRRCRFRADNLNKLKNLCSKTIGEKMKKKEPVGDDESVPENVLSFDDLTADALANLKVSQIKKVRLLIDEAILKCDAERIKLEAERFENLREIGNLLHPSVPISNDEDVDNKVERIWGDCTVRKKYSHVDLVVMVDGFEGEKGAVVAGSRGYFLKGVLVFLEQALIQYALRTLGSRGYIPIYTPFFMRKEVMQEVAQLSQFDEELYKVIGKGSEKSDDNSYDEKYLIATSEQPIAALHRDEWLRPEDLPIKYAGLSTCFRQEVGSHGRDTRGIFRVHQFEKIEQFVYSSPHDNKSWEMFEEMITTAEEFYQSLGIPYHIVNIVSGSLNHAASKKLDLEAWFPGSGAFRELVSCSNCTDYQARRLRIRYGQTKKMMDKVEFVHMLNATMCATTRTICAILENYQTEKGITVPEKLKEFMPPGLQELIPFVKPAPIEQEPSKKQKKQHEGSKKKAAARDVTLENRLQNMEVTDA

B1: purified His-tagged human SIRT2 (enzyme, UniProt Q8IXJ6 1-389, looked up)
chain: MAEPDPSHPLETQAGKVQEAQDSDSDSEGGAAGGEADMDFLRNLFSQTLSLGSQKERLLDELTLEGVARYMQSERCRRVICLVGAGISTSAGIPDFRSPSTGLYDNLEKYHLPYPEAIFEISYFKKHPEPFFALAKELYPGQFKPTICHYFMRLLKDKGLLLRCYTQNIDTLERIAGLEQEDLVEAHGTFYTSHCVSASCRHEYPLSWMKEKIFSEVTPKCEDCQSLVKPDIVFFGESLPARFFSCMQSDFLKVDLLLVMGTSLQVQPFASLISKAPLSTPRLLINKEKAGQSDPFLGMIMGLGGGMDFDSKKAYRDVAWLGECDQGCLALAELLGWKKELEDLVRREHASIDAQSGAGVPNPSTSASPKKSPPPAKDEARTTEREKPQ
notes: The SIRT2 of the deacetylase assay is called only 'recombinant human SIRT2'; it may have come from the CycLex kit; also called recombinant SIRT2; His-tagged SIRT2; not shown: His tag, C-terminal, kept
Does B1 bind?
Result: binds
